Data taken from the Immune Epitope Database (IEDB).

What was measured:
Experiment in all cases: IEDB peptide-MHC binding, purified MHC/competitive/radioactivity; ≥ and ≤ were set here for values at or beyond the usual limits of such assays
[1] = molecular target: HLA-A*02:01
[2] = molecular target: HLA-A*02:02
[3] = molecular target: HLA-A*02:03
[4] = molecular target: HLA-A*02:06
[5] = molecular target: HLA-A*68:02
[6] = source organism: Vaccinia virus WR
[7] = source organism: Hepacivirus hominis
[8] = source organism: Influenza A virus
[9] = source organism: Mammarenavirus guanaritoense
[10] = source organism: Mammarenavirus whitewaterense
[11] = source organism: Mammarenavirus brazilense
[12] = source organism: Mammarenavirus lassaense
[13] = source organism: Mammarenavirus choriomeningitidis
[14] = source organism: Mammarenavirus machupoense

Sequence | IC50 [1, 6] [nM] | IC50 [2, 6] [nM] | IC50 [3, 6] [nM] | IC50 [4, 6] [nM] | IC50 [5, 6] [nM] | also measured
AISAVYFKA | 41 | 3.7 | 525 | 149 | 77 | –
TLLIKTLSPA | 0.49 | 1 | 1.2 | 0.73 | 1210 | –
PIIYSKAGNI | 873 | 654 | 139 | 728 | 3110 | –
LLMCAVHPEL | – | – | – | – | – | IC50 [1, 7]: 54 nM; IC50 [2, 7]: 25 nM; IC50 [3, 7]: 177 nM; IC50 [4, 7]: 442 nM; IC50 [5, 7]: 1350 nM
WSYNAELLVA | – | – | – | – | – | IC50 [1, 8]: 256 nM; IC50 [2, 8]: 242 nM; IC50 [3, 8]: 14 nM; IC50 [4, 8]: 15 nM; IC50 [5, 8]: 1620 nM
STSPTRTWKV | 741 | 397 | 717 | 504 | 131 | –
SMYVIPDELI | 380 | 31 | 114 | 492 | 1740 | –
CLDAGINYV | – | – | – | – | – | IC50 ([1]; source organism: SARS-CoV1): 0.91 nM; IC50 ([2]; source organism: SARS-CoV1): 0.57 nM; IC50 ([3]; source organism: SARS-CoV1): 6.4 nM; IC50 ([4]; source organism: SARS-CoV1): 1.6 nM; IC50 ([5]; source organism: SARS-CoV1): 79 nM
VIKLVKSLV | 881 | 1030 | 126 | 4120 | 640 | –
TTFITVLTSV | 271 | 1120 | 16 | 166 | 15 | –
ILISLINSLV | 83 | 23 | 3.1 | 151 | 141 | –
ALYSPPLISI | 1130 | 1.4 | 150 | 162 | 323 | –
CIVQSVLRDI | 1180 | 218 | 158 | 849 | 3480 | –
TVPTNDHIPV | 1670 | 1680 | 1890 | 515 | 57 | –
ILPDKIDGL | 62 | 1 | 3.5 | 43 | 4000 | –
MQIAILVTTV | – | – | – | – | – | IC50 [1, 8]: 79 nM; IC50 [2, 8]: 40 nM; IC50 [3, 8]: 6 nM; IC50 [4, 8]: 61 nM; IC50 [5, 8]: 129 nM
LVMDKNHAI | 327 | 19 | 770 | 103 | 10 | –
CTMERTNDL | 345 | 36 | 25 | 96 | 103 | –
IIMAINVFT | 27 | 39 | 180 | 10 | 84 | –
TLVDLCFWS | – | – | – | – | – | IC50 [1, 9]: 61 nM; IC50 [2, 9]: 58 nM; IC50 [3, 9]: 524 nM; IC50 [4, 9]: 134 nM; IC50 [5, 9]: 4880 nM
LIVILFIMFM | 139 | 85 | 433 | 120 | 60 | –
FLCLFLLPSL | – | – | – | – | – | IC50 ([1]; source organism: SARS-CoV1): 0.33 nM; IC50 ([2]; source organism: SARS-CoV1): 0.53 nM; IC50 ([3]; source organism: SARS-CoV1): 2.9 nM; IC50 ([4]; source organism: SARS-CoV1): 0.37 nM; IC50 ([5]; source organism: SARS-CoV1): 729 nM
IICEDAMYYA | 23 | 24 | 108 | 8.8 | 746 | –

Sequence | IC50 [1, 6] [nM] | IC50 [2, 6] [nM] | IC50 [3, 6] [nM] | IC50 [4, 6] [nM] | IC50 [5, 6] [nM] | also measured
IMTSTRTIIL | 540 | 1020 | 52 | 438 | 91 | –
LLALQQLEV | – | – | – | – | – | IC50 ([1]; source organism: SARS-CoV1): 1 nM; IC50 ([2]; source organism: SARS-CoV1): 0.14 nM; IC50 ([3]; source organism: SARS-CoV1): 0.29 nM; IC50 ([4]; source organism: SARS-CoV1): 42 nM; IC50 ([5]; source organism: SARS-CoV1): 83 nM
CNYTKFWYV | – | – | – | – | – | IC50 [1, 10]: 725 nM; IC50 [2, 10]: 1940 nM; IC50 [3, 10]: 794 nM; IC50 [4, 10]: 35 nM; IC50 [5, 10]: 247 nM
YVIPDELIDV | 23 | 18 | 14 | 12 | 350 | –
FISSFLLPLT | 62 | 39 | 44 | 51 | 982 | –
MAAAKTPVI | 1370 | 259 | 209 | 672 | 16 | –
GMSIVCIVAA | 178 | 161 | 231 | 1220 | 1860 | –
HSLPRCWLV | – | – | – | – | – | IC50 [1, 11]: 2130 nM; IC50 [2, 11]: 655 nM; IC50 [3, 11]: 147 nM; IC50 [4, 11]: 323 nM; IC50 [5, 11]: 660 nM
SVDVDIYDAV | 153 | 0.43 | 9.2 | 3.3 | 0.25 | –
SLPSYAAYA | – | – | – | – | – | IC50 ([1]; source organism: SARS-CoV1): 3.9 nM; IC50 ([2]; source organism: SARS-CoV1): 6.7 nM; IC50 ([3]; source organism: SARS-CoV1): 2.6 nM; IC50 ([4]; source organism: SARS-CoV1): 8.7 nM; IC50 ([5]; source organism: SARS-CoV1): 334 nM
GLYIPGTSV | 75 | 111 | 17 | 1740 | 904 | –
FVMCLEAKT | 3840 | 609 | 1940 | 979 | 1510 | –
SIINHKFCNL | – | – | – | – | – | IC50 [1, 12]: 2120 nM; IC50 [2, 12]: 247 nM; IC50 [3, 12]: 562 nM; IC50 [4, 12]: 1020 nM; IC50 [5, 12]: 920 nM
IMRVMANNV | 311 | 396 | 1260 | 2500 | 1180 | –
ILEYLYIMRV | 30 | 74 | 83 | 134 | 1350 | –
LLLEWLAEV | – | – | – | – | – | IC50 ([1]; source organism: SARS-CoV1): 0.22 nM; IC50 ([2]; source organism: SARS-CoV1): 0.11 nM; IC50 ([3]; source organism: SARS-CoV1): 0.63 nM; IC50 ([4]; source organism: SARS-CoV1): 0.11 nM; IC50 ([5]; source organism: SARS-CoV1): 339 nM
AIFNNRNLA | 3180 | 272 | 98 | 7.1 | 372 | –
MMVILPDKI | 161 | 69 | 16 | 909 | 1630 | –
QMAGVEVRYI | 6.4 | 0.21 | 0.14 | 45 | 147 | –
MLLTFLTSL | – | – | – | – | – | IC50 ([1]; source organism: SARS-CoV1): 1.6 nM; IC50 ([2]; source organism: SARS-CoV1): 6.2 nM; IC50 ([3]; source organism: SARS-CoV1): 4.8 nM; IC50 ([4]; source organism: SARS-CoV1): 3.6 nM; IC50 ([5]; source organism: SARS-CoV1): 923 nM
NIFMTLVPV | 11 | 86 | 6.4 | 227 | 2.6 | –
AVYNFATCGI | – | – | – | – | – | IC50 [1, 13]: 137 nM; IC50 [2, 13]: 25 nM; IC50 [3, 13]: 7.3 nM; IC50 [4, 13]: 25 nM; IC50 [5, 13]: 13 nM
FISIYSRPKI | 135 | 23 | 102 | 396 | 592 | –

Sequence | IC50 [1, 6] [nM] | IC50 [2, 6] [nM] | IC50 [3, 6] [nM] | IC50 [4, 6] [nM] | IC50 [5, 6] [nM] | also measured
MQALQLLLEV | – | – | – | – | – | IC50 [1, 8]: 67 nM; IC50 [2, 8]: 147 nM; IC50 [3, 8]: 13 nM; IC50 [4, 8]: 48 nM; IC50 [5, 8]: 615 nM
SMYGKAFNHA | 9.7 | 6.6 | 0.93 | 4 | 163 | –
MMNITRLEVI | 144 | 85 | 26 | 134 | 428 | –
STTENAAYQV | 1180 | 928 | 4700 | 101 | 15 | –
FVFNGTSWFI | – | – | – | – | – | IC50 ([1]; source organism: SARS-CoV1): 1.1 nM; IC50 ([2]; source organism: SARS-CoV1): 1 nM; IC50 ([3]; source organism: SARS-CoV1): 2.2 nM; IC50 ([4]; source organism: SARS-CoV1): 0.44 nM; IC50 ([5]; source organism: SARS-CoV1): 0.33 nM
FLNGSCGSV | – | – | – | – | – | IC50 ([1]; source organism: SARS-CoV1): 5.8 nM; IC50 ([2]; source organism: SARS-CoV1): 1 nM; IC50 ([3]; source organism: SARS-CoV1): 0.57 nM; IC50 ([4]; source organism: SARS-CoV1): 64 nM; IC50 ([5]; source organism: SARS-CoV1): 318 nM
NLILNFLDWI | 4390 | 1690 | 283 | 443 | 3710 | –
TIAHINTLI | 255 | 21 | 20 | 571 | 129 | –
VLMTHFFSV | – | – | – | – | – | IC50 [1, 7]: 1.9 nM; IC50 [2, 7]: 4.9 nM; IC50 [3, 7]: 2.6 nM; IC50 [4, 7]: 6.1 nM; IC50 [5, 7]: 103 nM
LATLNTLITL | 848 | 139 | 338 | 323 | 1040 | –
ITAIYVFCI | – | – | – | – | – | IC50 ([1]; source organism: SARS-CoV1): 127 nM; IC50 ([2]; source organism: SARS-CoV1): 29 nM; IC50 ([3]; source organism: SARS-CoV1): 89 nM; IC50 ([4]; source organism: SARS-CoV1): 132 nM; IC50 ([5]; source organism: SARS-CoV1): 272 nM
FLFLAWIML | – | – | – | – | – | IC50 ([1]; source organism: SARS-CoV1): 6.4 nM; IC50 ([2]; source organism: SARS-CoV1): 1.8 nM; IC50 ([3]; source organism: SARS-CoV1): 38 nM; IC50 ([4]; source organism: SARS-CoV1): 37 nM; IC50 ([5]; source organism: SARS-CoV1): 1340 nM
TSFFYRYGFV | – | – | – | – | – | IC50 [1, 8]: 1100 nM; IC50 [2, 8]: 1100 nM; IC50 [3, 8]: 451 nM; IC50 [4, 8]: 851 nM; IC50 [5, 8]: 0.0096 nM
AMPGVLSYV | – | – | – | – | – | IC50 [1, 14]: 8.4 nM; IC50 [2, 14]: 4.2 nM; IC50 [3, 14]: 7.3 nM; IC50 [4, 14]: 22 nM; IC50 [5, 14]: 834 nM
IVVPVIDRL | 241 | 144 | 226 | 31 | 35 | –
ILMTHFFSI | – | – | – | – | – | IC50 [1, 7]: 1.3 nM; IC50 [2, 7]: 6.7 nM; IC50 [3, 7]: 1 nM; IC50 [4, 7]: 4.7 nM; IC50 [5, 7]: 185 nM
RTMPNESRV | 1510 | 140 | 100 | 155 | 14 | –
AAVIIMAINV | 1450 | 1290 | 607 | 446 | 95 | –
VIADYNYKL | – | – | – | – | – | IC50 ([1]; source organism: SARS-CoV1): 24 nM; IC50 ([2]; source organism: SARS-CoV1): 0.48 nM; IC50 ([3]; source organism: SARS-CoV1): 115 nM; IC50 ([4]; source organism: SARS-CoV1): 69 nM; IC50 ([5]; source organism: SARS-CoV1): 290 nM
YVILKDPRI | 778 | 1550 | 203 | 12 | 847 | –
STDQDTMLFA | 3520 | 646 | 4700 | 2020 | 1550 | –
FVLALYSPPL | 979 | 2.2 | 38 | 212 | 263 | –
LLTDTIESA | 25 | 17 | 11 | 5.9 | 1240 | –
